{"source": "paper PMC4909244", "about": "“Crystal structure of glutamate-1-semialdehyde-2,1-aminomutase from Arabidopsis thaliana” (Acta Crystallographica. Section F, Structural Biology …, 2016)", "molecular_target": "the molecule itself", "assay": "SEC; size-exclusion chromatography, in solution; data not shown"}
{"protein": "Glutamate-1-semialdehyde-2,1-aminomutase from Arabidopsis thaliana (AtGSA1) (enzyme, The sense primer puts a TEV site (ENLYFQG) directly before VDEKKKS, so a Gly may remain at the N-terminus after cleavage (surmised from the primer); The protein retains the cofactors PMP/PLP; The first six N-terminal residues are not modelled in the structure; also called GSAM; glutamate-1-semialdehyde aminotransferase; source: E. coli BL21(DE3), purified (nickel-nitrilotriacetic acid column, TEV …)) not shown", "values": [{"measurement": "stoichiometry N", "value": 2}]}
